# Publication PMC2806190 (Cell, 2009)
# T1: Sec39 (residues 1–709) (S. cerevisiae, UniProt Q12745 1-709)
# T1 sequence (looked up): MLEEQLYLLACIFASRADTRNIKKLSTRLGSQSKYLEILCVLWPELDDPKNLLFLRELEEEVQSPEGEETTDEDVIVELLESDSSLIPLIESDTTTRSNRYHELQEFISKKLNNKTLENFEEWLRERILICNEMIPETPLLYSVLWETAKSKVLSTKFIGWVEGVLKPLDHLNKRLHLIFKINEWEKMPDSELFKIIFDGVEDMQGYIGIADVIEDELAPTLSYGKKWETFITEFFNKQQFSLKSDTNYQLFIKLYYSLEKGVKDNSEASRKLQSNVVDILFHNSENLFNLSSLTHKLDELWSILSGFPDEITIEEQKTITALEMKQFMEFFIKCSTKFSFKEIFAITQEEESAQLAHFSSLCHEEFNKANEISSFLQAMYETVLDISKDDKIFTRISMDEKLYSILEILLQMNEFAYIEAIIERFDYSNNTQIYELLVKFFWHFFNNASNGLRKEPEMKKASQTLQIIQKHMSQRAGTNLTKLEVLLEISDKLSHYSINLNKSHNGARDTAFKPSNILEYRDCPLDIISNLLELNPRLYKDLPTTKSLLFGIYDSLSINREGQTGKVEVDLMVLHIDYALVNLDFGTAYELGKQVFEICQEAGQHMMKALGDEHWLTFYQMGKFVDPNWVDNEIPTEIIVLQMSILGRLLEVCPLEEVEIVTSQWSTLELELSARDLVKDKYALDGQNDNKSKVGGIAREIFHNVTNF
# T2: His-tagged Sec39 (S. cerevisiae, UniProt Q12745 1-709)
# T2 sequence (looked up): T1 sequence (looked up)
# T3: Sec39 residues 1–392 (S. cerevisiae, UniProt Q12745 1-392)
# T3 sequence (looked up): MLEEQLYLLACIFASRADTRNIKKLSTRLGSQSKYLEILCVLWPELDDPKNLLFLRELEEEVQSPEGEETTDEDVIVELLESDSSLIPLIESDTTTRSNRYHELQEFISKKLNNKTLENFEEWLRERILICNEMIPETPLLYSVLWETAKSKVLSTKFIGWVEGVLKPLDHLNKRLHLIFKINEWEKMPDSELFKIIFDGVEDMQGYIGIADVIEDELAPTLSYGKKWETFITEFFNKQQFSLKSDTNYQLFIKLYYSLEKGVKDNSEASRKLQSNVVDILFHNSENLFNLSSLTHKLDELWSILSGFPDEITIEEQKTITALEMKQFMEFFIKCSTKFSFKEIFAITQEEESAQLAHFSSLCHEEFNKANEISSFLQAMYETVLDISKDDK
# B1: Use1 cytoplasmic domain (residues 1–212), TF tag removed (domain or fragment, S. cerevisiae, UniProt P53146 1-212, looked up)
# chain: MAETSNDPFLSYVLSSKQLTNLNRLRRKAVTKQLGSSDDNKVSEEFLRYQHTYQREAFEYLQTKHDAHKIMESQYEQYQSSSKTRRYSIDLDSVDAVDTESQTEYPNEEFIDRNEDSEAVMELRKRLLGKGQNKGLGYETTKSVDRQIEDQDTLQQDLIQDMSKLVGSLKQGAVAFQSALDEDKQVLGAAEIGIQVASQGLMDVSGKLRKYD
# B2: TF-Use1 (residues 1–212 fused to trigger factor) (domain or fragment, S. cerevisiae, UniProt P53146 1-212, looked up)
# chain: B1 chain
# Columns and labels:
# [1] = molecular target: Dsl1 (residues 1–754) (S. cerevisiae) (UniProt P53847)
# [2] = molecular target: Sec39 (residues 1–709) (S. cerevisiae) (UniProt Q12745)
# Sec39 (residues 1–709) [3] = molecular target: T1, Sec39 (residues 1–709); assay: SEC
# Sec39 (residues 1–709) [4] = molecular target: T1, Sec39 (residues 1–709); assay: co-purification
# His-tagged Sec39 = molecular target: T2, His-tagged Sec39; assay: co-purification
# Sec39 residues 1–392 = molecular target: T3, Sec39 residues 1–392; assay: SEC
molecule,measurement,setting,value
Tip20 (residues 1–701) (from UniProt P33891 1-701) (natural protein),Kd,[1],100 nM
Dsl1 (residues 1–754) (from UniProt P53847 1-754) (natural protein),Kd,[2],10 nM
"MAETSNDPFLSYVLSSKQLTNLNRLRRKAVTKQLG (peptide, UniProt P53146 1-35, looked up) [N-terminal peptide of Use1 (residues 1–35)]",binding result,Sec39 (residues 1–709) [3],binds
B1,binding result,Sec39 (residues 1–709) [4],binds
same,binding result,His-tagged Sec39,binds
B2,binding result,Sec39 residues 1–392,binds
